Target: Protein A/G
Experiment: single-molecule TIRF microscopy, saturation curve

Kd: 4.6 nM
Substance: Mouse monoclonal anti-V5 tag antibody [SV5-Pk1]

Source: paper PMC7904085
